In US9981005B2, “Methods for increasing DISC1 in a subject with schizophrenia or bipolar disorder by an antagonist inhibiting DISC1 binding to FBXW7” (The University Court of the University of Glasgow, priority 2013, dated 2018):
Where no end group is shown, it is not given here. [ ]: non-standard residue; d: D form. pT = C[C@@H](OP(=O)(O)O)[C@H](N)C(=O)O; NMeE = CN[C@@H](CCC(=O)O)C(=O)O; pS = N[C@@H](COP(=O)(O)O)C(=O)O; NMeD = CN[C@@H](CC(=O)O)C(=O)O

Target: FBXW7 (Homo sapiens, UniProt Q969H0)
Sequence (Q969H0 whole entry): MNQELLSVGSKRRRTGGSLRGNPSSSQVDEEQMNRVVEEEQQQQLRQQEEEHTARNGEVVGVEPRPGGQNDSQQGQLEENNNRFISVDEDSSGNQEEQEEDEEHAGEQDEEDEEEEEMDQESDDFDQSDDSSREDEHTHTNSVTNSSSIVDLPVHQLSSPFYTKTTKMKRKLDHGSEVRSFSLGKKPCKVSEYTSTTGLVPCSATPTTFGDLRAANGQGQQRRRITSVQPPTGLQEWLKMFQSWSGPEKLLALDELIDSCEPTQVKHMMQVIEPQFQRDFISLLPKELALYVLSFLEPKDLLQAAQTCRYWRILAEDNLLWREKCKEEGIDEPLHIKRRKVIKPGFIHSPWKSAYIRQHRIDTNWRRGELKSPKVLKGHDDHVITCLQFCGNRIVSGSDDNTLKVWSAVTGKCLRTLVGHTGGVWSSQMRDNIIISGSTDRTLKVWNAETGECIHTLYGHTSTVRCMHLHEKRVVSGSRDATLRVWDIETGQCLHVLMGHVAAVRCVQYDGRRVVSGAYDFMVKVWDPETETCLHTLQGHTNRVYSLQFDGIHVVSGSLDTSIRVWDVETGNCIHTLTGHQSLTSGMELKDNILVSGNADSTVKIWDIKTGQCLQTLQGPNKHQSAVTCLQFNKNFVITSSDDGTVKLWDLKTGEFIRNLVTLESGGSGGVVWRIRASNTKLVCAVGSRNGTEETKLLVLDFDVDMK
Assay: Peptides immobilised on membranes screened for the ability to bind FBXW7
Format: binding
Text: Peptides derived from DISC1 and containing the putative phospho-degron motif were immobilised on membranes and screened for the ability to bind FBXW7. […] (SEQ ID NO: 114).
The 7-mer peptide P-pT-P-P-G-pS-H (SEQ ID NO: 21) was used as the basis for further investigation. L- and D-forms of aspartic acid and glutamic acid (upper and lower case letters respectively) as well as N-methylated versions of each (designated “m”) were incorporated at positions 198 and 202.

Row | Substance | binding to FBXW7
1 | G-A-P-P-G-mE-H (GAPPG[NMeE]H) [Peptide A22] | retain or have improved binding to FBXW7
2 | G-d-P-A-G-mE-K (G[dD]PAG[NMeE]K) [Peptide A192] | retain or have improved binding to FBXW7
3 | G-d-P-P-G-mE [Peptide A5] | retain or have improved binding to FBXW7
4 | G-d-P-P-G-mE-H (G[dD]PPG[NMeE]H) [Peptide 173] | retain or have improved binding to FBXW7
5 | G-d-P-P-Q-mE-H (G[dD]PPQ[NMeE]H) [Peptide A12] | retain or have improved binding to FBXW7
6 | G-d-P-P-a-mE-k (G[dD]PP[dA][NMeE][dK]) [Peptide A196] | retain or have improved binding to FBXW7
7 | G-d-P-P-q-mE-H (G[dD]PP[dQ][NMeE]H) [Peptide A13] | retain or have improved binding to FBXW7
8 | G-d-P-a-G-mE-k (G[dD]P[dA]G[NMeE][dK]) [Peptide A193] | retain or have improved binding to FBXW7
9 | G-d-P-p-a-mE-H (G[dD]P[dP][dA][NMeE]H) [Peptide A170] | retain or have improved binding to FBXW7
10 | G-d-P-p-a-mE-h (G[dD]P[dP][dA][NMeE][dH]) [Peptide A171] | retain or have improved binding to FBXW7
11 | G-d-p-P-G-mE-H (G[dD][dP]PG[NMeE]H) [Peptide A180] | retain or have improved binding to FBXW7
12 | G-d-p-p-G-mE-H (G[dD][dP][dP]G[NMeE]H) [Peptide A172] | retain or have improved binding to FBXW7
13 | G-d-p-p-G-mE-h (G[dD][dP][dP]G[NMeE][dH]) [Peptide A174] | retain or have improved binding to FBXW7
14 | G-d-p-p-a-mE-H (G[dD][dP][dP][dA][NMeE]H) [Peptide A173] | retain or have improved binding to FBXW7
15 | G-d-p-p-a-mE-h (G[dD][dP][dP][dA][NMeE][dH]) [Peptide A175] | retain or have improved binding to FBXW7
16 | G-e-P-P-G-mE (G[dE]PPG[NMeE]) [Peptide A25] | retain or have improved binding to FBXW7
17 | G-e-P-P-G-mE-H (G[dE]PPG[NMeE]H) [Peptide 147] | retain or have improved binding to FBXW7
18 | G-mD-P-P-G-mE (G[NMeD]PPG[NMeE]) [Peptide A45] | retain or have improved binding to FBXW7
19 | G-mD-P-P-Q-mE-H (G[NMeD]PPQ[NMeE]H) [Peptide A52] | retain or have improved binding to FBXW7
20 | G-mD-P-p-G-mE-H (G[NMeD]P[dP]G[NMeE]H) [Peptide A56] | retain or have improved binding to FBXW7
21 | G-mE-P-P-q-mE-H (G[NMeE]PP[dQ][NMeE]H) [Peptide A73] | retain or have improved binding to FBXW7
22 | G-mE-P-p-G-mE-H (G[NMeE]P[dP]G[NMeE]H) [Peptide A76] | retain or have improved binding to FBXW7
23 | GPEVPPTPPGSHSAFTSSFSFIRL (listed as Homo sapiens) | Detectable binding
24 | L-d-P-P-G-mE-H (L[dD]PPG[NMeE]H) [Peptide A98] | retain or have improved binding to FBXW7
25 | L-e-P-P-G-mE-H (L[dE]PPG[NMeE]H) [Peptide A137] | retain or have improved binding to FBXW7

Row | Substance | binding to FBXW7
26 | L-mD-P-P-G-mE-H (L[NMeD]PPG[NMeE]H) [Peptide A58] | retain or have improved binding to FBXW7
27 | P-A-P-P-G-mD-H (PAPPG[NMeD]H) [Peptide A102] | retain or have improved binding to FBXW7
28 | P-A-P-P-G-mE-H (PAPPG[NMeE]H) [Peptide A82] | retain or have improved binding to FBXW7
29 | P-E-P-P-G-d-H (PEPPG[dD]H) [Peptide 16] | retain or have improved binding to FBXW7
30 | P-E-P-P-G-mD (PEPPG[NMeD]) [Peptide A144] | retain or have improved binding to FBXW7
31 | P-E-P-P-G-mD-H (PEPPG[NMeD]H) [Peptide 64] | retain or have improved binding to FBXW7
32 | P-E-P-P-Q-mD-H (PEPPQ[NMeD]H) [Peptide A151] | retain or have improved binding to FBXW7
33 | P-P-G-mE-H (PPG[NMeE]H) [Peptide A189] | retain or have improved binding to FBXW7
34 | P-P-pT-P-P-G-pS-H (PP[pT]PPG[pS]H) | retain the ability to bind FBXW7
35 | P-d-P-P-G-mE (P[dD]PPG[NMeE]) [Peptide A85] | retain or have improved binding to FBXW7
36 | P-d-P-P-G-mE-H (P[dD]PPG[NMeE]H) [Peptide 82] | retain or have improved binding to FBXW7
37 | P-d-P-P-G-mE-K (P[dD]PPG[NMeE]K) [Peptide A194] | retain or have improved binding to FBXW7
38 | P-d-P-P-G-mE-k (P[dD]PPG[NMeE][dK]) [Peptide A195] | retain or have improved binding to FBXW7
39 | P-d-p-P-G-mE-H (P[dD][dP]PG[NMeE]H) [Peptide A97] | retain or have improved binding to FBXW7
40 | P-e-P-P-G-mD-H (P[dE]PPG[NMeD]H) [Peptide A101] | retain or have improved binding to FBXW7
41 | P-e-P-P-G-mE (P[dE]PPG[NMeE]) [Peptide A124] | retain or have improved binding to FBXW7
42 | P-e-P-P-G-mE-H (P[dE]PPG[NMeE]H) [Peptide 55] | retain or have improved binding to FBXW7
43 | P-e-P-P-Q-mE-H (P[dE]PPQ[NMeE]H) [Peptide A131] | retain or have improved binding to FBXW7
44 | P-e-P-P-q-mE-H (P[dE]PP[dQ][NMeE]H) [Peptide A132] | retain or have improved binding to FBXW7
45 | P-e-P-p-G-mE-H (P[dE]P[dP]G[NMeE]H) [Peptide A135] | retain or have improved binding to FBXW7
46 | P-e-p-P-G-mE-H (P[dE][dP]PG[NMeE]H) [Peptide A136] | retain or have improved binding to FBXW7
47 | P-pT-P-P-G-pS-H [A80] (P[pT]PPG[pS]H) [Peptide A80] | retain or have improved binding to FBXW7
48 | P-pT-P-P-G-pS-H [A100] (P[pT]PPG[pS]H) [Peptide A100] | retain or have improved binding to FBXW7
49 | P-pT-P-P-G-pS-H [A119] (P[pT]PPG[pS]H) [Peptide A119] | retain or have improved binding to FBXW7
50 | P-pT-P-P-G-pS-H [A139] (P[pT]PPG[pS]H) [Peptide A139] | retain or have improved binding to FBXW7
